Experimental data reported in the supplement of paper PMC10126150.
± gives the standard deviation of the averaged measurements.

System: ATP
Experiment: switch fluorescence ratio, 500 uM ATP over buffer (Cy3 cluster intensity, sum of 5 cycles each) (fold (ratio)); higher = stronger signal-on switching upon ATP binding; sequences stand for … in TCGTCGGCAGCGTCAGATGTGTATAAGAGACAGTTTTTTTTTTTTTTTTTTTTTTTTT…TC
Conditions: aptamer strand: ATP DNA aptamer (quencher-CACCTGGGGGAGTATTGCGGAGGAAGG + anchor), 100 nM annealed; ATP concentration: 500 uM
Summary of the method: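 The fluorescence ratio divides summed target-cycle Cy3 intensity by summed buffer-cycle Cy3 intensity for each cluster and is averaged per switch-domain sequence. Cy3-labelled switching-strand clusters on a modified Illumina MiSeq flow-cell were annealed to 100 nM quencher-labelled ATP aptamer, then imaged in selection buffer and again after 15 min with 500 uM ATP at 22 °C. Five such cycles were run, with NaOH stripping and re-annealing between them, and clusters outside 100-1000 RFU were excluded.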
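Further: ATP exposure 15 min at 22 °C before imaging.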

| Sequence | switch fluorescence ratio |
| --- | --- |
| TGATACGGGG | 1.01 ± 0.026 |
| TGATAGAAGT | 1.01 ± 0.015 |
| TGATAGAGTG | 1.01 ± 0.074 |
| TGATAGCGGA | 1.03 ± 0.035 |
| TGATAGGAAG | 1 ± 0.019 |
| TGATAGTAT | 0.96 ± 0.037 |
| TGATATGTGT | 0.973 ± 0.053 |
| TGATCATACT | 1.035 ± 0.0046 |
| TGATCATATG | 0.982 ± 0.068 |
| TGATCATGTT | 0.984 ± 0.037 |
| TGATCCAGGG | 0.9873 ± 0.0081 |
| TGATCGGGGT | 1.02 ± 0.018 |
| TGATCGTG | 1.01 ± 0.015 |
| TGATCTGTCG | 0.9814 ± 0.0086 |
| TGATGAAAAA | 1.01 ± 0.04 |
| TGATGAAAGA | 0.996 ± 0.021 |
| TGATGAAATG | 1.01 ± 0.049 |
| TGATGAATGG | 0.9899 ± 0.0092 |
| TGATGCAGAA | 1.036 ± 0.0041 |
| TGATGCATAA | 1.04 ± 0.034 |
| TGATGCTAGG | 1.01 ± 0.021 |
| TGATGCTTTT | 1.01 ± 0.035 |
| TGATGGATAA | 1.01 ± 0.027 |
| TGATGGCCGG | 1.05 ± 0.04 |
| TGATGGCTGC | 1.04 ± 0.013 |
| TGATGGGCAT | 1.01 ± 0.018 |

| Sequence | switch fluorescence ratio |
| --- | --- |
| TGATGGTGCC | 0.986 ± 0.014 |
| TGATGGTTCA | 0.941 ± 0.077 |
| TGATGTAATG | 1 ± 0.02 |
| TGATGTAGAG | 0.99 ± 0.029 |
| TGATGTATCA | 1.01 ± 0.08 |
| TGATGTGATG | 0.995 ± 0.012 |
| TGATGTTGGT | 0.988 ± 0.014 |
| TGATTATAGA | 0.983 ± 0.03 |
| TGATTATGGG | 0.9781 ± 0.0063 |
| TGATTATGTT | 1.04 ± 0.035 |
| TGATTCCGCA | 3.07 ± 0.12 |
| TGATTCGGTT | 1.037 ± 0.0089 |
| TGATTCTAGC | 0.972 ± 0.011 |
| TGATTCTTAT | 0.97 ± 0.014 |
| TGATTGGATG | 0.9855 ± 0.007 |
| TGATTTAACC | 1.05 ± 0.021 |
| TGATTTCCAT | 0.9996 ± 0.0064 |
| TGATTTGACC | 1.03 ± 0.051 |
| TGATTTGGGG | 0.9675 ± 0.0076 |
| TGATTTTGGA | 0.974 ± 0.012 |
| TGATTTTGGC | 1.01 ± 0.017 |
| TGCAAAAGAG | 1.01 ± 0.062 |
| TGCAAGGCGC | 1.23 ± 0.24 |
| TGCAAGTTCG | 0.9694 ± 0.0095 |
| TGCAATTGGG | 1.08 ± 0.022 |
| TGCAATTTGT | 1 ± 0.078 |

| Sequence | switch fluorescence ratio |
| --- | --- |
| TGCACAGTCG | 1.01 ± 0.036 |
| TGCACCGAGT | 1.04 ± 0.018 |
| TGCAGAAATT | 0.98 ± 0.059 |
| TGCAGAGCAC | 1.01 ± 0.028 |
| TGCAGAGGGC | 1.03 ± 0.02 |
| TGCAGGCAAG | 1.01 ± 0.024 |
| TGCAGGGATC | 1.03 ± 0.017 |
| TGCAGGGGCG | 1.04 ± 0.14 |
| TGCAGGTAGG | 1.04 ± 0.036 |
| TGCAGGTTGG | 1.03 ± 0.036 |
| TGCAGTCTGT | 0.988 ± 0.034 |
| TGCAGTGGTT | 1.01 ± 0.03 |
| TGCAGTTTGA | 1.02 ± 0.012 |
| TGCATAAGAA | 0.955 ± 0.03 |
| TGCATAATCT | 1.04 ± 0.026 |
| TGCATAGGGG | 0.999 ± 0.018 |
| TGCATGCAGG | 1.02 ± 0.015 |
| TGCATGGGCT | 1.05 ± 0.12 |
| TGCATGGGGG | 0.999 ± 0.044 |
| TGCATGTCCT | 1.029 ± 0.0088 |
| TGCATGTGGC | 0.988 ± 0.012 |
| TGCATTAGAG | 1.02 ± 0.034 |
| TGCATTTAGT | 1.006 ± 0.0086 |
| TGCATTTTAC | 1.28 ± 0.082 |
| TGCCAGATTT | 0.993 ± 0.041 |
